{"source": "patent US10272050B2", "about": "“Nanoparticles and methods of use” (The Brigham and Women's Hospital, Inc., priority 2014, dated 2019)", "molecules": {"B1": {"name": "recombinant mouse interleukin 10 (protein, UniProt P18893 19-178, looked up)", "Interleukin-10": "SRGQYSREDNNCTHFPVGQSHMLLELRTAFSQVKTFFQTKDQLDNILLTDSLMQDFKGYLGCQALSEMIQFYLVEVMPQAEKHGPEIKEHLNSLGEKLKTLRMRLRRCHRFLPCENKSKAVEQVKSDFNKLQDQGVYKAMNEFDIFINCIEAYMMIKMKS", "notes": "recombinant mouse interleukin 10, Mw ~36 kDa, from R&D Systems"}, "B2": {"name": "released IL-10: IL-10 released from TNPs (obtained at 48 h post-release) (protein, UniProt P18893 19-178, looked up)", "Interleukin-10": "B1 Interleukin-10", "modifications": "released from nanoparticles"}}, "key": {"[1]": {"assay": "Protein encapsulation efficiency and loading content (solvent-free loading, ELISA of unloaded protein)", "format": "physicochemical", "conditions": "loaded into TNPs at 4° C. without organic solvents", "method": "The protein encapsulation efficiency and the loading content were determined by separation of unloaded proteins from TNPs using Amicon Ultra centrifugal filters (MWCO 100 kDa). Unloaded proteins were measured using a protein ELISA kit and Synergy HT multi-mode microplate reader (BioTek Instruments Inc., Winooski, Vt., USA) at […] absorbance."}, "[2]": {"assay": "In vitro release of proteins from TNPs in PBS", "format": "physicochemical", "conditions": "100 rpm, 37° C.", "method": "The protein-loaded nanoparticles were dispersed in 1 mL of phosphate-buffered saline solution (PBS) and subsequently incubated in a shaking incubator at 100 rpm and 37° C. At each time point, the protein released from nanoparticles was isolated using Amicon Ultra-0.5 centrifugal filters (MWCO 50 kDa) at 5,000 rpm for 2 min at 20° C. Then the protein-loaded nanoparticles were resuspended in PBS and incubated in the same manner until the last defined time point. The amount of released protein at each time point was measured at 450 nm using an ELISA kit. The measurements were done in triplicate."}, "[3]": {"test_system": "sIL-1Ra gene expression", "assay": "qPCR of sIL-1Ra in LPS-stimulated macrophage cells", "format": "cell-based", "conditions": "LPS 500 ng/mL 4 h, then IL-10 20 ng/mL 2 h", "method": "(§1) Macrophage cells were seeded on a 6-well tissue culture plate (5×10^5 cells/well) and maintained for 12 h. The cells were treated with LPS (500 ng/mL) for 4 h, the medium was replaced with IL-10 solution (native IL-10 or released IL-10 at 20 ng/mL), and the cells were incubated for 2 h at 37° C. Next, the cells were washed with PBS and harvested by scraping, followed by centrifugation at 2,000 rpm for 5 min at 4° C. The isolated cell pellets were used to prepare the total RNA using the RNeasy® Mini Kit (QIAGEN, Valencia, Calif., USA) according to the manufacturer's protocol. For the preparation of cDNA, the extracted RNA solution (1 μg/5 μL) was then mixed with 0.5 μL of Oligo (dT) 15 primer (Promega, Madison, Wis., USA) and then reacted at 70° C. for 5 min using the Bio-Rad iCycler PCR Thermal Cycler (Bio-Rad Laboratories, Inc., Hercules, Calif., USA). The mixture was subsequently placed on ice for 5 min and mixed with various components to a final volume of 20 μL: nuclease-free water (5.6 μL), 10 mM dNTP mixture (Promega, 1 μL), 25 mM MgCl2 (Promega, 2.4 μL), ImProm-II™ reverse transcriptase (Promega, 1 μL), ImProm-II™ 5× reaction buffer (Promega, 4 μL), and RNasin® Plus RNase inhibitor (Promega, 0.5 μL). […] The relative gene expression levels were calculated using the ΔΔCt method and normalized to the expression of the reference gene (β-Actin). […]"}, "[4]": {"conditions": "mouse, in vivo, iv", "protocol": "At 5 min, 30 min, 1 h, 2 h, 4 h, 8 h, 12 h, and 24 h post-injection, blood samples (0.5 mL) were drawn for serum protein concentration analysis. Next, the blood samples were placed at 4° C. overnight to allow the formation of a blood clot and centrifuged under 2,000×g for 15 min at 4° C. The serum samples were stored at −80° C. and analyzed using an ELISA kit. […] The AUC (area under the serum concentration-time curve) and AUMC (area under the first moment curve) were calculated using the trapezoidal rule."}, "[5]": {"test_system": "intracellular ROS in LPS-stimulated RAW 264.7 macrophage cells", "assay": "Inhibition of intracellular ROS in LPS-stimulated macrophages (DCFH2-DA)", "format": "cell-based", "method": "To analyze the inhibitory effect of IL-10 on intracellular reactive oxygen species (ROS) generated from lipopolysaccharide (LPS)-stimulated macrophage cells, RAW 264.7 macrophage cells were seeded on a 24-well tissue culture plate at a density of 2×10^4 cells per well and then allowed to grow for 12 h. The cells were pre-treated with IL-10 at various concentrations (1 to 100 ng/mL) for 2 h and 24 h at 37° C. Then the medium was replaced with LPS solution (100 ng/mL), and the cells were further incubated for 4 h and 24 h at 37° C. The cells were then washed with PBS and incubated with 10 μM ROS detection reagent (DCFH2-DA) for 90 min at 37° C. Fluorescence intensity was measured using a Synergy HT multi-mode microplate reader with ex/em 485/528 nm filter (BioTek Instruments Inc).\nIn order to determine the bioactive integrity of IL-10 released from or loaded into TNPs, cells seeded on a 24-well tissue culture plate (2×10^4 cells/well) were pre-treated with native IL-10, IL-10 released from TNPs (obtained at 48 h post-release), or IL-10-loaded TNPs at 50 ng/mL concentration for 24 h at 37° C. Next, the medium was replaced with LPS solution (100 ng/mL), and the cells were stimulated with LPS for 24 h at 37° C. After washing with PBS, intracellular ROS was measured using the detection method mentioned above. […]"}, "[6]": {"test_system": "DNFB-induced allergic contact dermatitis", "assay": "DNFB-induced allergic contact dermatitis (ACD) model", "format": "in vivo, C57BL/6 mice", "conditions": "100 μg IL-10/kg i.v. 2 h before DNFB, ear thickness at 36 h", "method": "C57BL/6 mice were administered i.v. saline, TNPs, IL-10, or IL-10-loaded TNPs (100 μg IL-10/kg). At 2 h post-injection, a 0.3% v/v solution of DNFB (2,4-dinitro-fluorobenzene) in acetone was applied the mice to the dorsal and ventral aspects of ear skin. Ear thickness was measured using an engineer's micrometer (Mitutoyo) at 36 h. The change of ear thickness is calculated as the difference between the treated ear and the contralateral ear treated with acetone alone.\nEars were fixed in a 10% formalin solution, embedded in paraffin, and submitted for histological analysis by haematoxilin and eosin staining to the Harvard Rodent Histopathology Core.\nFor ear-skin digestion, the dorsal and ventral aspects of the ear were mechanically separated before mincing and placing into a digestion mix consisting of DMEM (Gibco) supplemented with HEPES (Invitrogen), 2% FCS, 200 μg/mL Liberase TM (Roche), 10 μg/mL DNase I (Roche), and 5 mg/mL Collagenase D (Roche). Ears were digested for 80 minutes at 37° C. in gentleMACS tubes (Miltenyi) with gentle agitation in freshly prepared digestion mix. After enzymatic digestion, the mixture was processed using a gentleMACS homogenizer (Miltenyi) in order to obtain a cell suspension, which was then filtered through a 70 μm cell strainer (BD). Cells were then resuspended in FACS buffer for analysis. […]"}, "[7]": {"test_system": "STAT3 and phosphorylated STAT3 (P-STAT3 at Tyr705)", "assay": "Western blot of STAT3 and P-STAT3 in unstimulated macrophage cells", "format": "cell-based", "conditions": "20 ng/mL, 24 h; for Total levels of STAT3: β-Actin reference", "method": "To determine the bioactivity of IL-10 in unstimulated cells, macrophage cells seeded on a 6-well tissue culture plate (5×10^5 cells/well) were treated with IL-10 (native IL-10 or released IL-10 at 20 ng/mL) and incubated for 24 h at 37° C. Then the cells were washed with ice-cold PBS three times and harvested by scraping into Eppendorf tubes, followed by centrifugation at 12,000 rpm for 5 min at 4° C. For protein extraction, the cells were lysed in 200 μL of protein extraction reagent (Fisher Scientific, Pittsburgh, Pa., USA) supplemented with protease inhibitor cocktail and phosphatase inhibitor cocktail (Sigma-Aldrich), and then centrifuged at 12,000 rpm for 10 min at 4° C. to remove the nuclei. Next, protein concentration was measured using a Coomassie Plus-Bradford™ assay with bovine serum albumin as the protein standard. The cell lysates (with 30 μg of protein) were mixed with 4× Laemmli Sample Buffer (Bio-Rad), and the mixture was boiled for 7 min at 95° C. […] Then the membranes were blocked with Tris-Buffered Saline-0.1% Tween 20 (TBST) solution containing 5% BSA for 2 h at 4° C. on a shaker. The primary antibodies (1:1000 dilutions) in TBST with 3% BSA were incubated with the membranes overnight at 4° C. on a shaker. After that, the membranes were washed with TBST solution four times (each 10 min) and then incubated with secondary antibody (1:10,000 dilutions) in TBST with 3% BSA for 1 h at room temperature on a shaker. Finally, the membranes were washed with TBST solution five times and visualized using Amersham ECL prime western blotting detection reagent (GE Healthcare Life Sciences, Pittsburgh, Pa., USA). The primary and secondary antibodies used in this study were from Cell Signaling Technology (Danvers, Mass., USA) as follows: β-Actin (8H10D10) Mouse mAb, Stat3 (124H6) Mouse mAb, and Phospho-Stat3 (Tyr705) (3E2) Mouse mAb as a primary antibody, and anti-mouse IgG (HRP-linked) antibody as a secondary antibody."}, "[8]": {"test_system": "TNF-α and IL-12 gene expression", "assay": "qPCR of proinflammatory cytokines in LPS-stimulated macrophage cells", "format": "cell-based", "conditions": "LPS 500 ng/mL 4 h, then IL-10 20 ng/mL 2 h", "method": "as §1"}}}
{"molecule": "lysozyme: lysozyme from chicken egg whites, model protein loaded into TNPs (1:20)", "values": [{"measurement": "Encapsulation efficiency", "setting": "[1]", "value": 90, "unit": "%"}, {"measurement": "Loading content", "setting": "[1]", "value": 1.8, "unit": "wt %"}, {"measurement": "Release profile from TNPs", "setting": "[2]", "value": "controlled-release kinetics up to a week"}]}
{"molecule": "B1", "values": [{"measurement": "Increase of sIL-1Ra mRNA expression compared to LPS alone", "setting": "[3]", "value": 1.5, "unit": "fold"}, {"measurement": "Clearance", "setting": "[4]", "value": 32.9928, "unit": "mL/min/kg"}, {"measurement": "Improvement of half-life versus IL-10 alone", "setting": "[4]", "value": 5.9, "unit": "fold"}, {"measurement": "T1/2 terminal", "setting": "[4]", "value": 15, "unit": "min"}, {"measurement": "Vss", "setting": "[4]", "value": 0.70727, "unit": "L/kg"}, {"measurement": "Inhibitory effect on ROS production, dose response", "setting": "[5]; IL-10 1-100 ng/mL, LPS 100 ng/mL, pre-treatment", "value": "dose-dependent inhibition effect"}, {"measurement": "Ear swelling", "setting": "[6]", "value": "reduction of ear swelling compared to the saline-treated control"}, {"measurement": "P-STAT3 (Tyr705) level", "setting": "[7]", "value": "clear band"}, {"measurement": "Total levels of STAT3", "setting": "[7]", "value": "slightly increased"}]}
{"molecule": "B2", "values": [{"measurement": "Increase of sIL-1Ra mRNA expression compared to LPS alone", "setting": "[3]", "value": "effects identical to those of the native protein"}, {"measurement": "Inhibitory effect on ROS production, pre-treatment (IL-10→LPS)", "setting": "[5]; 50 ng/mL IL-10 24 h, then 100 ng/mL LPS 24 h", "value": "almost no statistical difference between the released IL-10 and native IL-10"}, {"measurement": "P-STAT3 (Tyr705) level", "setting": "[7]", "value": "almost identical"}, {"measurement": "Total levels of STAT3", "setting": "[7]", "value": "almost identical"}, {"measurement": "Reduction of TNF-α and IL-12 expression", "setting": "[8]", "value": "ca. 2.5 fold"}]}
